Source: IntAct's records for PubMed 19487680

Tests used:
[1] = biological target: sgt1b_arath SGT1B (UniProt Q9SUT5)
[2] = biological target: rar1_arath RAR1 (UniProt Q9SE33)
rar1_arath RAR1, sequence (Q9SE33 whole entry): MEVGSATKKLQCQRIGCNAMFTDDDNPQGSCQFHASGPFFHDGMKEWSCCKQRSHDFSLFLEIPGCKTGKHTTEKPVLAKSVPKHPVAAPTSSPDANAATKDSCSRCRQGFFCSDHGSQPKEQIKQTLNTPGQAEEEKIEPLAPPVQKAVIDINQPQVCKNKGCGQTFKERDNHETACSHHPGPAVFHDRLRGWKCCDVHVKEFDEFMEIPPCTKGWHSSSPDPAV

sgt1b_arath SGT1B, sequence (Q9SUT5 whole entry): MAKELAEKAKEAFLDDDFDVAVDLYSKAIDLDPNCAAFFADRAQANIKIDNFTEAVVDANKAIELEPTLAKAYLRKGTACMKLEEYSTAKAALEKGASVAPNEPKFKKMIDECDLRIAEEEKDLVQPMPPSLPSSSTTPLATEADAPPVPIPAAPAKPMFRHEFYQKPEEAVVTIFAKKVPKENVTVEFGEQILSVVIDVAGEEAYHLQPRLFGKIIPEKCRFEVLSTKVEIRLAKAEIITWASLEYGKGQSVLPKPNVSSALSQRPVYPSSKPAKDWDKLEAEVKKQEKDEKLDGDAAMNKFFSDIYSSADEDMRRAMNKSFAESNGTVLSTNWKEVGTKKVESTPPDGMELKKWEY
Heat shock protein 90-2 (Arabidopsis thaliana (Mouse-ear cress)), P55737 R337C, sequence (P55737 whole entry R337C): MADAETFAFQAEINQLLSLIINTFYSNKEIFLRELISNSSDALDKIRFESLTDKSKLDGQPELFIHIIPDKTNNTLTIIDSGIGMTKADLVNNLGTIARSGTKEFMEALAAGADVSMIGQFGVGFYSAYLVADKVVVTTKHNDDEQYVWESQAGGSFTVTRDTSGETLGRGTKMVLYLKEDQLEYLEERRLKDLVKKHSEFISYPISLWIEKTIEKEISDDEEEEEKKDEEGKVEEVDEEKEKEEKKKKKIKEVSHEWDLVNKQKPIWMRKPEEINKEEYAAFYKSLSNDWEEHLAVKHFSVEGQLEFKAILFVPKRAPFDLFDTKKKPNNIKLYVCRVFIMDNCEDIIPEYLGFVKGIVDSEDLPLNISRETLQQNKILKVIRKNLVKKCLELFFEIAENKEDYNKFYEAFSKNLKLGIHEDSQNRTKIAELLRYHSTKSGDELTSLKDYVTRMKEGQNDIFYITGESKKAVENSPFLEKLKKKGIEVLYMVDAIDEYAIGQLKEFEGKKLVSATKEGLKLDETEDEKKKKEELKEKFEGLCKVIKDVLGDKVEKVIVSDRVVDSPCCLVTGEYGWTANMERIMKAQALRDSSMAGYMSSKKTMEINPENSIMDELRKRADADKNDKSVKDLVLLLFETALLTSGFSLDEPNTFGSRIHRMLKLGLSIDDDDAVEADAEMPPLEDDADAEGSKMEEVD
Heat shock protein 90-2 (Arabidopsis thaliana (Mouse-ear cress)), P55737 A42T, sequence (P55737 whole entry A42T): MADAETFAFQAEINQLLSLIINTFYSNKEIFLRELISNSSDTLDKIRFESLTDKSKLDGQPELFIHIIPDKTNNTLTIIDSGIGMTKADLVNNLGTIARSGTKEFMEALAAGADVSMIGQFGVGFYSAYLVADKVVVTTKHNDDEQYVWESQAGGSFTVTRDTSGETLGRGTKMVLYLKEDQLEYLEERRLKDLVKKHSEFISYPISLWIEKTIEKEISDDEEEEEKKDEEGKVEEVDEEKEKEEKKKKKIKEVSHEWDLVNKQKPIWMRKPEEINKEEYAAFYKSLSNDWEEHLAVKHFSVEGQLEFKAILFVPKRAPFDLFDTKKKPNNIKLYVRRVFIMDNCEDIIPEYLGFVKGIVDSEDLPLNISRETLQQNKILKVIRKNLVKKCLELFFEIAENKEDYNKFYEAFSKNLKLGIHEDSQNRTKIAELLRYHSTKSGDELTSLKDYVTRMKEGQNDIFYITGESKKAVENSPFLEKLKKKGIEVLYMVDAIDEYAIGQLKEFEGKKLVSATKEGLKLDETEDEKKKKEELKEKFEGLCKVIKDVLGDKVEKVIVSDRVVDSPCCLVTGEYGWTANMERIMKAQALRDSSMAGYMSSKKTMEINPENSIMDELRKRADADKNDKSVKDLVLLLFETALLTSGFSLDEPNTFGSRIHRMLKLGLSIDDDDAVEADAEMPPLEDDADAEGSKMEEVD
Heat shock protein 90-2 (Arabidopsis thaliana (Mouse-ear cress)), P55737 G95E, sequence (P55737 whole entry G95E): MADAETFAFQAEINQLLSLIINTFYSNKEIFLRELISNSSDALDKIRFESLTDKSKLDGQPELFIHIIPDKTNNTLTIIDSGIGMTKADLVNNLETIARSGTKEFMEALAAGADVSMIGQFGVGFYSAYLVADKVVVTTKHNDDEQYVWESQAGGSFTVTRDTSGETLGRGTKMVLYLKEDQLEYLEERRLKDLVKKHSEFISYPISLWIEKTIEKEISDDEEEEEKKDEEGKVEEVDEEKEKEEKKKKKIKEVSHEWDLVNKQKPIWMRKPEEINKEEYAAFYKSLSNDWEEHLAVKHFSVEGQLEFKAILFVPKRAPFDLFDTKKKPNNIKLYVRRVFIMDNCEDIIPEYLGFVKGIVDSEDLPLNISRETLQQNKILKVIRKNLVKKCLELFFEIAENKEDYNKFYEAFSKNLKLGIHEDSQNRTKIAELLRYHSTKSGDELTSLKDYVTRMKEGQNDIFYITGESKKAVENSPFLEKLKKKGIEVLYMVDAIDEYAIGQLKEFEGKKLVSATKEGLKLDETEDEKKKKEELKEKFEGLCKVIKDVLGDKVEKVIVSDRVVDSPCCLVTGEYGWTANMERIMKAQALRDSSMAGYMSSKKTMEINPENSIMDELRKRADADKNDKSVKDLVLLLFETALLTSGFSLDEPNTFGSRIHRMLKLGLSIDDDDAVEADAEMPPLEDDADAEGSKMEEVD
Heat shock protein 90-2 (Arabidopsis thaliana (Mouse-ear cress)), P55737 D80N, sequence (P55737 whole entry D80N): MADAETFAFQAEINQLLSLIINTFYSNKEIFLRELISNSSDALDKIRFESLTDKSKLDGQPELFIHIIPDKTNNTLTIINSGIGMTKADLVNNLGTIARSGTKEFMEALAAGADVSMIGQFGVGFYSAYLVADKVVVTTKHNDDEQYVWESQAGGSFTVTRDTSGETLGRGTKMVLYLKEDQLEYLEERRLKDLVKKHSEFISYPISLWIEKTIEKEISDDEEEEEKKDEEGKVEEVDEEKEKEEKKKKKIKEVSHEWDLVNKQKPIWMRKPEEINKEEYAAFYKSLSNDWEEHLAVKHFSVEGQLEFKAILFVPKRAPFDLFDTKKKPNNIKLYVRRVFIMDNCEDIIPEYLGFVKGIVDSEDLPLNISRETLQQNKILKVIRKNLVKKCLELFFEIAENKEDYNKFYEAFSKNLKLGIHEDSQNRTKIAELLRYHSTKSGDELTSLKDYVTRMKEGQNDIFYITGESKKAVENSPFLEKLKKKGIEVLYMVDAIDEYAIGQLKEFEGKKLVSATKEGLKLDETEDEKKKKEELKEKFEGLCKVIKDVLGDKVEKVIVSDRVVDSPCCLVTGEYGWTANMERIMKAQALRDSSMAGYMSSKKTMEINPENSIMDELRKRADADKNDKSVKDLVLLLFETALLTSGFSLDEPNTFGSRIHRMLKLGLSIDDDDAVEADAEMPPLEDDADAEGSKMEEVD
Heat shock protein 90-2 (Arabidopsis thaliana (Mouse-ear cress)), P55737 S100F, sequence (P55737 whole entry S100F): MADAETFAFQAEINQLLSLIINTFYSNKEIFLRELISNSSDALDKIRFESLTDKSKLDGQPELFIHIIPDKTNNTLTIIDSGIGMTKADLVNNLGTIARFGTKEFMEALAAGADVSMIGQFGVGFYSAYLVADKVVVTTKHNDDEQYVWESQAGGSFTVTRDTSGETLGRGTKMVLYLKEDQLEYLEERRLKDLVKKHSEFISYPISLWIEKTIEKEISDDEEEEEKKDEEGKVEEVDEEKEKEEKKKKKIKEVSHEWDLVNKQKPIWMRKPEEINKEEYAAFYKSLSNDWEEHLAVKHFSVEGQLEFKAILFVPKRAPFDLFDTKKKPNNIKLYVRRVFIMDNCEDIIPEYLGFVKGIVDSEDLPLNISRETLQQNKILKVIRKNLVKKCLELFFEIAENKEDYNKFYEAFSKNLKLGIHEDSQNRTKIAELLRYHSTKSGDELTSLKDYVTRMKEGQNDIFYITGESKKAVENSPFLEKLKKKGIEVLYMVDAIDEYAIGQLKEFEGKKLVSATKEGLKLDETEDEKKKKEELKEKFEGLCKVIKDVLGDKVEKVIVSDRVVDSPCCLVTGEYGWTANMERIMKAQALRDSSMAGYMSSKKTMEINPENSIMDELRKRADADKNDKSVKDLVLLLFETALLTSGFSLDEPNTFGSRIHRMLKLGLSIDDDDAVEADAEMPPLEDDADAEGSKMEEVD

Row | Substance | effect of a mutation on the interaction [1] | effect of a mutation on the interaction [2]
1 | Heat shock protein 90-2 (Arabidopsis thaliana (Mouse-ear cress)), P55737 A42T | disrupting interaction strength | disrupting interaction strength
2 | Heat shock protein 90-2 (Arabidopsis thaliana (Mouse-ear cress)), P55737 R337C | decreasing interaction strength | disrupting interaction strength
3 | Heat shock protein 90-2 (Arabidopsis thaliana (Mouse-ear cress)), P55737 D80N | disrupting interaction strength | disrupting interaction strength
4 | Heat shock protein 90-2 (Arabidopsis thaliana (Mouse-ear cress)), P55737 S100F | disrupting interaction strength | –
5 | Heat shock protein 90-2 (Arabidopsis thaliana (Mouse-ear cress)), P55737 G95E | disrupting interaction strength | decreasing interaction strength
